Experimental findings from US5955329 are described below.

Usually Ki stands for the equilibrium dissociation constant of an inhibitor or competing ligand from its target. Low values mean higher affinity, high ones lower affinity.

Experiment [1] concerns the target 16:0 acyl-ACP.
In experiment [2] the target is 16:0 acyl-ACP. The source holds these as a separate data set.
Experiment [3] has as its target 18:0 acyl-ACP.
The target of experiment [4] is 14:0-ACP.
Experiment [5] deals with 18:0 acyl-ACP. The source holds these as a separate data set.
The target in experiment [6] is California bay (Umbellularia californica) C12 preferring acyl-ACP thioesterase, wild type, mature protein from pCGN3823 (California bay (Umbellularia californica)). Put plainly: inhibition of 14:0-ACP thioesterase activity; 5 µM cold 12:0-ACP against 5 µM 14C labeled 14:0-ACP as competitor.
For experiment [7], the target named is bay thioesterase triple mutant M197R/R199H/T231K (California bay (Umbellularia californica)). Described as above.
Experiment [8] concerns the target California bay (Umbellularia californica) C12 preferring acyl-ACP thioesterase, wild type, mature protein from pCGN3823 (California bay (Umbellularia californica)). In words: inhibition of 14:0-ACP thioesterase activity; 25 µM cold 12:0-ACP against 5 µM 14C labeled 14:0-ACP as competitor.
Experiment [9] concerns the target bay thioesterase triple mutant M197R/R199H/T231K (California bay (Umbellularia californica)). The experiment is described as above.
For experiment [10], the target named is California bay (Umbellularia californica) C12 preferring acyl-ACP thioesterase, wild type, mature protein from pCGN3823 (California bay (Umbellularia californica)). In words: inhibition kinetics of thioesterase activity; slope inhibition constant of 12:0-ACP with 14:0-ACP as varied substrate.
In experiment [11] the target is bay thioesterase triple mutant M197R/R199H/T231K (California bay (Umbellularia californica)). The experiment is described as above.
The target of experiment [12] is 12:0-ACP.
Experiment [13] concerns the target 14:0-ACP. This is another data set of the same source.
Experiment [14] has as its target 12:0-ACP. The source holds these as a separate data set.
Experiment [15] concerns the target 14:0-ACP. The source holds these as a separate data set.
In experiment [16] the target is acyl-ACP substrates (chain length not stated for this assay).
For experiment [17], the target named is 12:0-ACP. This is another data set of the same source.

Substitutions are numbered along the chain they refer to. Names may count otherwise.

In turn, “Cuphea palustris Class II acyl-ACP thioesterase CpFatB2 (MCT34), mature region as lacZ fusion protein (MCT34LZ) (enzyme)” returned an acyl-ACP thioesterase activity (% of the C14-ACP activity) with 16:0 acyl-ACP [1] of 30.

With “mangosteen (Garcinia mangifera) Class I acyl-ACP thioesterase GarmFatA1, wild type (enzyme)”, the values for the Acyl-ACP Thioesterase activity (cpm/min) in the experiment with 16:0 acyl-ACP [2], with 18:0 acyl-ACP [3] and with 18:1 acyl-ACP were 4370 cpm/min, 23900 cpm/min and 87400 cpm/min, respectively.

As to “Cuphea palustris Class II acyl-ACP thioesterase CpFatB1 (MCT29), mature region as lacZ fusion protein (MCT29LZ) (enzyme)”, the acyl-ACP thioesterase activity (% of the C8-ACP activity) in the experiment with 14:0-ACP [4] is 10.

Turning to “mangosteen GarmFatA1 mutant D261K (enzyme)”, the thioesterase activity, preference 18:0/18:1 (% (18:0/18:1)) in the experiment with 18:0 acyl-ACP [5] is 35.

As to 12:0-ACP, the Inhibition (%) in [6] was found to be 53%; in experiment [7], 48%; in [8], 78%; in experiment [9], 76%. Also, the Ki in [10] was determined as 10.2 µM; in experiment [11], 11.6 µM.

B1: California bay (Umbellularia californica) C12 preferring acyl-ACP thioesterase, wild type, mature protein from pCGN3823 (enzyme)
chain: LEWKPKPKLPQLLDDHFGLHGLVFRRTFAIRSYEVGPDRSTSILAVMNHMQEATLNHAKSVGILGDGFGTTLEMSKRDLMWVVRRTHVAVERYPTWGDTVEVECWIGASGNNGMRRDFLVRDCKTGEILTRCTSLSVLMNTRTRRLSTIPDEVRGEIGPAFIDNVAVKDDEIKKLQKLNDSTADYIQGGLTPRWNDLDVNQHVNNLKYVAWVFETVPDSIFESHHISSFTLEYRRECTRDSVLRSLTTVSGGSSEAGLVCDHLLQLEGGSEVLRARTEWRPKLTDSFRGISVIPAEPRV
With B1, the Km,app with 12:0-ACP [12] came to 1.9 µM; in the experiment with 14:0-ACP [13], 6.4 µM.

B2: bay thioesterase triple mutant M197R/R199H/T231K (enzyme)
chain: B1 chain with M114R, R116H, T148K
For the molecule B2, the Km,app with 14:0-ACP [13] is 2.3 µM.

B3: bay thioesterase mutant R322M/R327Q (enzyme)
chain: B1 chain with R239M, R244Q
With B3, the figures for the thioesterase specific activity (fold decrease) in the experiment with 12:0-ACP [14] and with 14:0-ACP [15] were 100 and 30, respectively.

B4: bay thioesterase mutant C320S (enzyme)
chain: B1 chain with C237S
B4 returned a thioesterase activity (% of the wild-type activity) in experiment [16] of 80.

B5: bay thioesterase mutant R327Q (enzyme)
chain: B1 chain with R244Q
With B5, the thioesterase specific activity (fold decrease) in the experiment with 12:0-ACP [14] is 100; with 14:0-ACP [15], 30.

B6: bay thioesterase mutant M197R/R199H (enzyme)
chain: B1 chain with M114R, R116H
B6 came in with a thioesterase activity with 12:0-ACP [17] of 7 fold reduced.
